Results from publication PMC5706988.

Biological target: zonula occludens-1 (ZO-1) (UniProt Q07157)
Test: anti-ZO-1 co-IP, Cx43 blot
Details: reference: wild type; sites S373

- binding against the reference: stronger
Substance: connexin43 (Cx43) (from UniProt P08050) S373A
